For the series, the system named is MS2 coat protein. Description: apparent KD of MS2 coat protein; designed switch direction (-1 OFF switch, 1 ON switch): -1; higher = weaker reporter binding. In outline:
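Designed RNA switches were transcribed on Illumina chips by stalled E. coli RNA polymerase and titrated with SNAP-549-labelled MS2 coat protein from 0.7 or 1.5 nM, doubling to 3 µM. Step length ran from 0.8–1.5 h at the lowest concentration to 10–20 min at the highest. The apparent KD is the median over clusters for each design, from curve-fitted normalised cluster fluorescence.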

The mark [1] stands for this setting: Eterna round: R95, input ligand: FMN 200 uM.
Setting [2] is: Eterna round: R95, input ligand: microRNA oligo, concentration not stated.
Where [3] appears, read: Eterna round: R95, input ligand: none.
[4] abbreviates: input ligand: microRNA oligo, concentration not stated.

“AAGAAACAUGAGGAUCACCCAUGUGAGGAUAUGAAAAAGAAAAGAAAAGAAAGAAGAAUCAGAAGGCACAAAGG [salish99-ex1_r3_019] (puzzle: Exclusion 1)”: the “apparent KD of MS2 coat protein” value under setting [1] is 40.5 nM, the “apparent KD of MS2 coat protein” value under setting [2] stood at 30.7 nM and the “apparent KD of MS2 coat protein” value under setting [3] is 34 nM.

“AAGAAACAUGAGGAUCACCCAUGUGAGGAUAUGAACAAGAAAAGAAAAGAAAGAAGAAUCAGAAGGCACAAAGG [salish99-ex1_r3_047] (puzzle: Exclusion 1)”: the “apparent KD of MS2 coat protein” value is, setting by setting: under setting [1], 102 nM; under setting [2], 49.2 nM; under setting [3], 84.7 nM.

As for “AAGAAACAUGAGGAUCACCCAUGUGAGGAUAUGACCAAGAAAAGAAAAGAAAGAAGAGUCAGAAGGCACAAAGG [salish99-ex1_r3_066] (puzzle: Exclusion 1)”, the “apparent KD of MS2 coat protein” value came to 99.7 nM under setting [1], 56.6 nM under setting [2] and 181 nM under setting [3].

Take “AAGAAACAUGAGGAUCACCCAUGUGAGGAUAUGACGAAGAAAAGAAAAGAAAGAAGAUUCAGAAGGCACAAAGG [salish99-ex1_r3_061] (puzzle: Exclusion 1)”: the “apparent KD of MS2 coat protein” value was 90.1 nM under setting [1], 42.9 nM under setting [2] and 56.4 nM under setting [3].

On to “AAGAAACAUGAGGAUCACCCAUGUGAGGAUAUGAGCAAGAAAAGAAAAGAAAGAAGAUUCAGAAGGCACAAAGG [salish99-ex1_r3_059] (puzzle: Exclusion 1)”, for which the “apparent KD of MS2 coat protein” value was 61.6 nM under setting [1], 39.4 nM under setting [2] and 59.3 nM under setting [3].

As to “AAGAAACAUGAGGAUCACCCAUGUGAGGAUAUGAUGAAGAAAAGAAAAGAAAGAAGAAUCAGAAGGCACAAAGG [salish99-ex1_r3_043] (puzzle: Exclusion 1)”, the “apparent KD of MS2 coat protein” value was determined as 83.6 nM under setting [1], 48.2 nM under setting [2] and 66.5 nM under setting [3].

As to “AAGAAACAUGAGGAUCACCCAUGUGAGGAUAUGUAAAAGAAAAGAAAAGAAAGAAGAAACAGAAGGCACAAAGG [Mat - Mod of Hog D12] (puzzle: Exclusion 1)”, the “apparent KD of MS2 coat protein” value turned out to be 82 nM under setting [1], 50.7 nM under setting [2] and 45.2 nM under setting [3].

As for “AAGAAACAUGAGGAUCACCCAUGUGAGGAUAUGUAAAAUAAAAGAAAAGAAAGAAUAAACAGAAGGCACAAAGG [Mat - Mod of Hog D14] (puzzle: Exclusion 1)”, the “apparent KD of MS2 coat protein” value runs as follows: under setting [1], 69.9 nM; under setting [2], 64.4 nM; under setting [3], 52.6 nM.

Turning to “AAGAAACAUGAGGAUCACCCAUGUGAGGAUAUGUAAAAUAAAAUAAAAUAAAUAAUAAACAGAAGGCACAAAGG [Mat - Mod of Hog D17] (puzzle: Exclusion 1)”, the “apparent KD of MS2 coat protein” value under setting [2] amounted to 58.6 nM.

As for “AAGAAAGGUGACAUGGGCGACAUGAGGAUCACCCAUGUUACAAGCUUGUUGCUCGUCUUAUAAUUAACCCAUGUCAC [LRO Sensor-off var1-21 mod of Stov1-13-A1 by Brourd] (Eterna round: R97, puzzle: Sensor, turn-off variant 1)”, the “apparent KD of MS2 coat protein” value is, setting by setting: (input ligand: FMN 200 uM) 16.1 nM; (input ligand: none) 17.9 nM.

On to “AAGAAGAAACAAGCUUUUUGCUCGUCUUAUAGUGACGCAACAUGAGGAUCACCCAUGUAUAGGAUGAGGGUGGAUAG [JR_SV3TOV2_Sub046] (puzzle: Sensor v3, turn-off variant 2)”, for which the “apparent KD of MS2 coat protein” value by setting is: under setting [1], 76.9 nM; under setting [2], 324 nM; under setting [3], 72 nM.

For the sequence “AAGAAGAAGUAAGGAUAUGAAGAUUUGGUGAUAACAUGAGGAUCACCCAUGUGAAAACAAUAAAAUCAGAAGGUAUAAGAAGAA [AK ExNG2-2] (Eterna round: R96, puzzle: Exclusion NG 2)”, the “apparent KD of MS2 coat protein” value (input ligand: FMN 200 uM) stood at 57.6 nM, the “apparent KD of MS2 coat protein” value under setting [4] worked out at 37.3 nM and the “apparent KD of MS2 coat protein” value (input ligand: none) was 58 nM.

With “AAGAAGAUCGGAGGAUAUGGAGCUGAAACGGCGCUAGAAGGCCGUCUAGUGUAACAUGAGGAUCACCCAUGUAGGGACCUCUAA [EX ng 1 4.2] (Eterna round: R96, puzzle: Exclusion NG 1)”, the “apparent KD of MS2 coat protein” value amounted to 944 nM (input ligand: FMN 200 uM), 633 nM under setting [4] and 558 nM (input ligand: none).

As to “AAGAAGCAAGGAUAUACAGAGGAGAGGAAAGCAAGAGGAGGACAUGAGGAUCACCCAUGUAGAAGGUGCAGAGA [JR_Exclu2_Sub019] (puzzle: Exclusion 2)”, the “apparent KD of MS2 coat protein” value by setting is: under setting [1], 67.4 nM; under setting [2], 68.8 nM; under setting [3], 63.5 nM.

On to “AAGAAUGAAGGAUAUACAUGAGGAUCACCCAUGUAAAAAAAAUUUUUUAGUUUUUCAUGUAGAAGGUCAAGAAG [JR_Exclusion3_Sub001] (puzzle: Exclusion 3)”, for which the “apparent KD of MS2 coat protein” value is, setting by setting: under setting [1], 47.9 nM; under setting [2], 41.8 nM; under setting [3], 43.6 nM.

Take “AAGACACAUGAGGAUCACCCAUGUGAGGAUAUUUGAUGCGUACCUACAGGACUGCGAUAAAGAAGGCAUAAGGG [Eternabot (L2) Solution 80] (Eterna round: R97, puzzle: Exclusion 1)”: the “apparent KD of MS2 coat protein” value reads like this: (input ligand: FMN 200 uM) 50.3 nM; (input ligand: none) 17.7 nM.

Take “AAGAGCAUCGGAGGAUAUGGAGCUGAAACGGCGCUAGAAGGCCGUGCAGUGUAACAUGAGGAUCACCCAUGUAGGGACCUCUAA [EX ng 1 4] (Eterna round: R96, puzzle: Exclusion NG 1)”: the “apparent KD of MS2 coat protein” value was 244 nM (input ligand: FMN 200 uM), 82.9 nM under setting [4] and 104 nM (input ligand: none).

As to “AAGAGGUCAGGAUAUACAGGAAGAGAGAGAAGUAGAGGGUAACAUGAGGAUCACCCAUGUAGAAGGGACUAAGA [JR_Exclu2_Sub071] (puzzle: Exclusion 2)”, the “apparent KD of MS2 coat protein” value runs as follows: under setting [1], 67.9 nM; under setting [2], 48.5 nM; under setting [3], 63.1 nM.

On to “AAGAGUGCAGGAUAUACUUGGUAGGGUAAGAUGAGUGAGUGACAUGAGGAUCACCCAUGUAGAAGGGCAGAGAG [JR_Exclu2_Sub056] (puzzle: Exclusion 2)”, for which, under setting [2], the “apparent KD of MS2 coat protein” value is 107 nM.

On to “AAGAUACAUGAGGAUCACCCAUGUGAGGAUAUCAGCACGACCGUGAGGUCGAUAAGAAUGAGAAGGCACAAUGG [JL-ex1-4.51] (Eterna round: R97, puzzle: Exclusion 1)”, for which the “apparent KD of MS2 coat protein” value (input ligand: FMN 200 uM) is 103 nM and the “apparent KD of MS2 coat protein” value (input ligand: none) was found to be 279 nM.

As for “AAGAUACAUGAGGAUCACCCAUGUGAGGAUAUGAGCACGCCGGUGACGGUGAUAAGAAUCAGAAGGCACAAUGG [JL-ex1-4.32 salish99 mod] (Eterna round: R97, puzzle: Exclusion 1)”, the “apparent KD of MS2 coat protein” value is, setting by setting: (input ligand: FMN 200 uM) 151 nM; (input ligand: none) 327 nM.

As for “AAGAUGCCAAAGGAUAUCGAAGGAGUGGCGCGGCGAGAAGGUUGGACAUGAGGAUCACCCAUGUGGUGGCUCCC [Usmaarri] (Eterna round: R97, puzzle: Exclusion 6)”, the “apparent KD of MS2 coat protein” value was 703 nM (input ligand: FMN 200 uM) and 1070 nM (input ligand: none).

Turning to “AAGAUGUGAGGAUAUCACGAGAACGUCACACGGACGCUCUCUGAGAAGGCACAUGAGGAUCACCCAUGUCCAAC [EX4 A.21] (Eterna round: R97, puzzle: Exclusion 4)”, the “apparent KD of MS2 coat protein” value reads like this: (input ligand: FMN 200 uM) 207 nM; (input ligand: none) 47.2 nM.

These data come from the supplement of paper PMC9170038.
